Data reported in publication PMC4370504, “Structural Basis for Ubiquitin Recognition by Ubiquitin-Binding Zinc Finger of FAAP20” (PLoS ONE, 2015).
Values belong to the binder of their own block, whether it stands above or below them.

Key:
Experiment in all cases: SPR; Biacore T200, Sensor Chip C1; GST-fused Ub or Ub2 captured by immobilised anti-GST antibodies (200-400 RU); FAAP20-UBZ injected 60 s at 10 uL/min; 25°C, HBS-P (10 mM HEPES-Na pH 7.4, 150 mM NaCl, 0.05% surfactant P20); equilibrium fit, 1:1 model; triplicate
Settings in all cases: both partners purified
[1] = biological target: T1, GST-fused K63-linked diubiquitin (K63-Ub2) (UniProt P0CG48 1-76; P0CG48 1-76, K63R | additional aspartate residue at its C-terminal extremity (D77), K63-linked to the other Ub chain | K63-linked to the other Ub chain)
T1 construct: ubiquitin carrying the K63R mutation, GST-fused; ubiquitin with an additional aspartate residue at its C-terminal extremity (D77 Ub); Surmised: Gly76 of GST-K63R Ub (distal) is joined by an isopeptide bond to Lys63 of D77 Ub (proximal); also called K63-linked Ub2; GST-fused K63-Ub2

[2] = biological target: T2, GST-fused M1-linked diubiquitin (M1-Ub2) (UniProt P0CG48 1-76; P0CG48 1-76)
T2 construct: ubiquitin, first (distal) moiety of the M1-linked (linear, head-to-tail) diubiquitin; ubiquitin, second (proximal) moiety, its Met1 joined to Gly76 of the first; Written as one chain of two ubiquitins, as M1-linked; also called M1-linked Ub2; GST-fused M1-Ub2; source: purified (Glutathione Sepharose FF, ResourceQ)

[3] = biological target: T1, GST-fused K63-linked diubiquitin …; remark: listed apart in the source
[4] = biological target: T3, GST-fused K48-linked diubiquitin (K48-Ub2) (UniProt P0CG48 1-76; P0CG48 1-76, K48R | additional aspartate residue at its C-terminal extremity (D77), K48-linked to the other Ub chain | K48-linked to the other Ub chain)
T3 construct: ubiquitin carrying the K48R mutation, GST-fused; ubiquitin with an additional aspartate residue at its C-terminal extremity (D77 Ub); Surmised: Gly76 of GST-Ub K48R (distal) is joined by an isopeptide bond to Lys48 of D77 Ub (proximal); also called K48-linked Ub2; GST-fused K48-Ub2

GST-fused ubiquitin (Ub) [5] = biological target: T4, GST-fused ubiquitin (Ub) (UniProt P0CG48 1-76)
T4 construct: ubiquitin (Ub), the mature product of a ubiquitin precursor; Captured on the chip by anti-GST antibodies; source: purified (Glutathione Sepharose FF, ResourceQ)

GST-fused ubiquitin (Ub) [6] = biological target: T4, GST-fused ubiquitin (Ub); remark: listed apart in the source

B1: FAAP20-UBZ (UBZ domain of FAAP20, residues 142-180), wild type (domain or fragment, human, UniProt Q6NZ36 142-180, looked up)
chain: AALRSCPMCQKEFAPRLTQLDVDSHLAQCLAESTEDVTW
notes: also called FAAP20-UBZ(wt); WT; source: E. coli Rosetta (DE3), purified (Glutathione Sepharose FF, ResourceQ, HRV3C cleavage, Superdex75); not shown: GST, N-terminal, cleaved
stoichiometry N [1]: 2 | Kd [2]: 22.3 µM | Kd [3]: 35.9 µM | Kd [4]: 39.1 µM | Kd (GST-fused ubiquitin (Ub) [5]): 19.9 µM

B3: FAAP20-UBZ L161A (domain or fragment, human, UniProt Q6NZ36 142-180, looked up)
chain: AALRSCPMCQKEFAPRLTQADVDSHLAQCLAESTEDVTW
notes: human FAAP20, UBZ domain, residues 142-180; source: purified similarly to wild-type FAAP20-UBZ (E. coli Rosetta (DE3)); not shown: GST, N-terminal, cleaved
Kd (GST-fused ubiquitin (Ub) [6]): 125 µM

Further binders by falling Kd (GST-fused ubiquitin (Ub) [6]), results first:

Kd (GST-fused ubiquitin (Ub) [6]): 218 µM
B4: FAAP20-UBZ D177A (domain or fragment, human, UniProt Q6NZ36 142-180, looked up)
chain: AALRSCPMCQKEFAPRLTQLDVDSHLAQCLAESTEAVTW
notes: as for B3

Kd (GST-fused ubiquitin (Ub) [6]): 113 µM
B2: FAAP20-UBZ A172L (domain or fragment, human, UniProt Q6NZ36 142-180, looked up)
chain: AALRSCPMCQKEFAPRLTQLDVDSHLAQCLLESTEDVTW
notes: as for B3
